Experimental data from PMC7590123.

Assays:
[1] = test system: T1, PhaD-His6 (Pseudomonas putida KT2440), ORF:4b0e7042; experiment: EMSA
T1 sequence: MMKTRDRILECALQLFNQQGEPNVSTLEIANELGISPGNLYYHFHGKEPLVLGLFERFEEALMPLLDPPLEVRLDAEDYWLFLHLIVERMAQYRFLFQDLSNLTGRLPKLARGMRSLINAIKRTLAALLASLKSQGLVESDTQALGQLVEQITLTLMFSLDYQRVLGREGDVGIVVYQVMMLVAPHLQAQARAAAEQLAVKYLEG

[2] = target: T18‐PhaC1 (bacterial two‐hybrid fusion, pUT18C‐phaC1) (P. putida); experiment: two-hybrid

Substance | binding [1] | β‐galactosidase activity [2]
CCGTACACTTCCGAGGATGGGCGCACCTCAGGCAGCATCTGCCGCGGGATGCCCAGGATTTCCAGCAGCTTGTCGTCCCACTGCAGGCTGTGGATGTTGAACATCAGCGTGCGCGAGGCATTGGTGTAGTCGGTGACGTGAACCTTCCCACCCGTAAGCTTCCAGATCAGCCAGGTG (double strand) [glpK coding fragment] | no binding | –
CGCGGATCCATGCTGTGTACCTCATGCTCATGAGTGGTGGAAAACCGCCCATGGAGGCTGGGCTTGAGCATTAAGGTAGGGAAGAAAATTAGAAACCTCACCCTAAGGTCGTCGTTGTCGCATCTATATACCGCAAGCCCCGTTGACCACAGCGCTAGCGTCGCAGGCTTCACCTCACGGACATCGACGCCATGACTGCTGTAGCAAACCCACCCAGGCTGACGTTCAAGCAAAGCGTGGCAGGAATTCCGG (double strand) [PI promoter probe (phaI upstream, 230 bp)] | binds | –
T18‐PhaC1 (bacterial two‐hybrid fusion, pUT18C‐phaC1) (natural protein) | – | 1730 U/mg CDW
